Measurements from the supplement of paper PMC10266784.

B1: library; numbered along this chain (parent)
chain: MAAAAAAAAEQQSSNGPVKKSMREKAVERRSVNKEHNSNFKAGYIPIDEDRLHKTGLRGRKGNLAICVIILLFILAVINLIITLVIWAVIRIGPNGCDSMEFHESGLLRFKQVSDMGVIHPLYKSTVGGRRNENLVITGNNQPIVFQQGTTKLSVENNKTSITSDIGMQFFDPRTQNILFSTDYETHEFHLPSGVKSLNVQKASTERITSNATSDLNIKVDGRAIVRGNEGVFIMGKTIEFHMGGNMELKAENSIILNGSVMVSTTRLPSSSSGDQLGSGDWVRYKLCMCADGTLFKVQVTSQNMGCQISDNPCGNTH

Variants of: B1
Experiment: SGCB cell-surface expression functional score (HA stain, bin4 vs bin1, normalised to synonymous) (log10 ratio); higher = more cell-surface SGCB (functional)
Method in brief: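 Sorting and sequencing yield the functional score, defined as the log ratio of a variant's highest-bin frequency to its lowest-bin frequency, with the median taken over codons and replicate transductions. The libraries, codon-saturation sets of HA-tagged, YFP-fused human beta-sarcoglycan, went into HEK293 cells stably carrying alpha-, gamma- and delta-sarcoglycan by duplicate lentiviral transduction at MOI <0.1. Cells were stained on ice with Alexa Fluor 647 anti-HA, fixed and split into four 5% intensity bins, and synonymous variants were scaled per section to mean 0, SD 0.5.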

SGCB cell-surface expression functional score (log10), by site and new letter:
E156: L -0.43, P -0.84, C 0.01, T -0.18, H -0.39, Q 0.19, M -0.14, K -0.6, Y -0.38, N -0.23, F -0.1, V -0.3, G -0.23, S -0.22, W -0.4, R -0.38, A -0.03, D -0.04, I -0.63
K152: F 0.02, N -0.11, C 0.03, P -0.94, A 0, M -0.19, R -0.22, V 0.52, G -0.57, L -0.53, S -0.23, W 0.3, E -0.38, T -0.04, Y -0.59, Q -0.46, I 0.14, H -0.48, D -0.66
S154: K 0.55, H -0.24, N -0.3, P -1.03, I 0, F -0.49, T -0.08, Q -0.7, L -0.22, M 0.54, R 0.01, G -0.24, A 0.26, E -0.33, D 0.2, W -0.21, V 0.16, C 0.11, Y -0.16
N157: K -0.19, L 0.19, E -0.18, F -0.21, Y 0.04, G 0.52, Q 0.38, R 0.01, S -0.08, I -0.06, V 0.48, D -0.02, T -0.05, M 0.06, W 0.34, P 0.01, H 0.06, A 0.08, C 0.02
L153: K -1.12, C -0.34, D -1.44, Q -1.65, H -1.03, W -1.15, G -0.65, A -1.08, M 0.18, E -0.79, P -1.07, F -0.26, N -1.69, Y -1.24, S -1.03, R -1.23, I -0.17, V -0.65, T -0.99
T151: Q -0.98, S 0.27, V -0.15, N -0.56, W -1.19, M -1.13, R -1.06, P -0.64, Y -1
K159: I 0, E -0.7, V -0.09, H -0.05, F -0.25, D -1.02, R -0.48, M -0.28, P -1.13, S -0.32, C -0.02, L 0.31, Y -0.79, N -0.03, T -0.28, Q -0.09, G 0.43, A -0.02, W -0.05
V155: H -1.51, R -1.45, C -0.76, G -1.18, T -1.02, L 0.18, S -1.06, P -1.4, W -1.19, E -0.74, I 0.29, D -0.85, F -0.64, Q -1.48, K -1.53, M 0.02, N -1.38, A -0.56, Y -1.9
N158: Q 0.06, C 0, T 0.18, A -0.1, L -0.11, K -0.26, H -0.2, I -0.21, V -0.44, F -0.06, S 0.15, M -0.12, D 0.02, R -0.6, W -0.42, P -0.76, G -0.06, E -0.02, Y -0.05
T160: D -1.29, G -1.29, C -0.14, F -0.15, A -0.29, E -1.3
